Measured values taken from US8652796 (Harvard, dated 2014).

How the values were obtained:
[1] = biological target: T1, T Antigen-HA fusion protein (SV40, UniProt P03070 1-708); assay: fluorescence microscopy of COS cells expressing T Antigen-HA with GFP-471-721
T1 construct: Construct is not described

SV40 T antigen = biological target: T2, SV40 T antigen (SV40, UniProt P03070 1-708); assay: recruitment to inclusions, fluorescence microscopy of cells
T2 construct: also called T-Ag; viral (SV40) T antigen

T1 sequence (P03070 1-708, tags or fused parts left off): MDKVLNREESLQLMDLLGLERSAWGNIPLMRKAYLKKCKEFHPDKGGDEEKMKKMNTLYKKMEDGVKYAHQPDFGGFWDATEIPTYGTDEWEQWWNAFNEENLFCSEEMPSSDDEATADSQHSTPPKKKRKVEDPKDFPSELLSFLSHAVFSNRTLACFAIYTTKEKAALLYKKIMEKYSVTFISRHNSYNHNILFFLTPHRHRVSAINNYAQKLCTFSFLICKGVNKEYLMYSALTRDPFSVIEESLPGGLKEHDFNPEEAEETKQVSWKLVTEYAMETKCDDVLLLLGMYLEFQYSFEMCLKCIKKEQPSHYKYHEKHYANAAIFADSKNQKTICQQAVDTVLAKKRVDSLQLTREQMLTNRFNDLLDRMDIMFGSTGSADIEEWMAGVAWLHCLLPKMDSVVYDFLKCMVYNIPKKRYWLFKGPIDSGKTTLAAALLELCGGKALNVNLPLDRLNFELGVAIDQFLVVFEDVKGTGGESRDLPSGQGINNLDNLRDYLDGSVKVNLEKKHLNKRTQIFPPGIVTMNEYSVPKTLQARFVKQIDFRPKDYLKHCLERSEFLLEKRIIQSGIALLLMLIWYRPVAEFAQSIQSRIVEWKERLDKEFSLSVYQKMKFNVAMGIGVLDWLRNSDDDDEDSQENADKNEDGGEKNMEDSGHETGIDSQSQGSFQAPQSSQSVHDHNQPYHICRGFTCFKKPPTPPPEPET

B1: GFP/µNS(471-721) (other)
chain: SNDVTDGIKLQLDASRQCHECPVLQQKVVELEKQIIMQKSIQSDPTPVALQPLLSQLRELSSEVTRLQMELSRAQSLNAQLEADVKSAQSCSLDMYLRHHTCINGHAKEDELLDAVVAPDVRREIMEKRSEVRQGWCERISKEAAAKCQTVIDDLTLMNGKQAQEITELRDSAEKYEKQIAELVSTITQNQITYQQELQALVAKNVELDALNQRQAKSLRITPSLLSATPIDSVDDVADLIDFSVPTDEL
notes: Expressed from pEGFP-C1-M3(471-721); GFP at the N terminus of µNS residues 471-721; also called GFP-471-721 fusion protein; EGFP/µNS(471-721); not shown: enhanced Aequorea victoria green fluorescent protein (EGFP) as encoded by the pEGFP-C1 vector (BD Biosciences); the enha
binding result [1]: no binding
binding result (SV40 T antigen): no binding
